In assay [1] the target is T1, human ABCC4 (human, UniProt O15439 1-1325).
T1 construct: Expressed on murine C6 cells stably transfected with human ABCC4 cDNA with C-terminal FLAG tag; also called MRP4; Multidrug resistance protein 4; not shown: C-terminal fused FLAG tag
T1 sequence: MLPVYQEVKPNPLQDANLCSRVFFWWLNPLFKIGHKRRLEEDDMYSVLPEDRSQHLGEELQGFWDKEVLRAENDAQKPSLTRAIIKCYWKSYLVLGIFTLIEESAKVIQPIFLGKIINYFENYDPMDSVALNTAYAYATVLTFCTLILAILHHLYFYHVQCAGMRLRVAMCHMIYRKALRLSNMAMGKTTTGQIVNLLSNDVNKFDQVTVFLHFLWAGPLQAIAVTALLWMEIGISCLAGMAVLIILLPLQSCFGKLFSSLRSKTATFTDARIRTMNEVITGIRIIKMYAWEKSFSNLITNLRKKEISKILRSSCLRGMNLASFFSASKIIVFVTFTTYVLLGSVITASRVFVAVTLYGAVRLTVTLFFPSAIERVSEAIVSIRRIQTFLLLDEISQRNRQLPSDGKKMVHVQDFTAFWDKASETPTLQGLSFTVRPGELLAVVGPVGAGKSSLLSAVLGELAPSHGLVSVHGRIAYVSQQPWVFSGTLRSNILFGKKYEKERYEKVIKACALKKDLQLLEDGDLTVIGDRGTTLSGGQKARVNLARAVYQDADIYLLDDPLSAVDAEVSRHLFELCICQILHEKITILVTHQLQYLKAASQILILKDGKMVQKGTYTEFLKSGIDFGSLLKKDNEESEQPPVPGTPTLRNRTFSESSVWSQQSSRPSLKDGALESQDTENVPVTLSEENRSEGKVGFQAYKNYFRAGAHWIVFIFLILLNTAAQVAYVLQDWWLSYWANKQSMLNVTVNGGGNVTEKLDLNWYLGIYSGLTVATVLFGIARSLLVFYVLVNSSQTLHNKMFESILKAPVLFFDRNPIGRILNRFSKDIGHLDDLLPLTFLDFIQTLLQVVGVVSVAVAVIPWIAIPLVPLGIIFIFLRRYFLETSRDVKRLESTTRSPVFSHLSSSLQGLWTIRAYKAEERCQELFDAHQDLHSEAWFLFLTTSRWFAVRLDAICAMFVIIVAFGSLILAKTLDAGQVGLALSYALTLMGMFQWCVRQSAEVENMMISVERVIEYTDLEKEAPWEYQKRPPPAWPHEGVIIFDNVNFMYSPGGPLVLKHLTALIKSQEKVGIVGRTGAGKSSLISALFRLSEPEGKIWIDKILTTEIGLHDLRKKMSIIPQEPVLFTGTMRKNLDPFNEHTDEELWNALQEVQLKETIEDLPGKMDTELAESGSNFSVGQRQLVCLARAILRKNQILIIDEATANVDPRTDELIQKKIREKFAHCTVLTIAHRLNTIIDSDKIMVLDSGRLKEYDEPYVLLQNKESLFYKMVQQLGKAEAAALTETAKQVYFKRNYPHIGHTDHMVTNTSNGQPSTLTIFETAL
In words: FACS, C6 cells stably expressing human ABCC4; + = MFI>3x background. On the procedure: Antibody binding to cells was evaluated by flow cytometry. Murine C6 cells stably transfected to express human or cynomolgus ABCC4 were washed once in flow cytometry buffer (PBS+2% FBS+0.02% sodium azide), resuspended at 2×10\hat{ }6 cells/mL in flow cytometry buffer, and dispensed into 96-well microtiter plates at 0.1 mL/well. Recombinant antibodies were added to cells at 5 ug/mL for initial binding confirmation, or serially diluted from 100 ug/mL in flow cytometry buffer. After incubating cells on ice for 30 min, cells were washed twice with flow cytometry buffer. Bound antibody was detected with PE-labeled F(ab′)₂ fragment goat anti-human IgG (Jackson ImmunoResearch) and evaluated on an Attune N×T flow cytometer. EC50 is calculated to be the concentration of antibody that gives half maximal response.

Assay [2] concerns the target T2, human ABCC4 (Homo sapiens, UniProt O15439).
T2 construct: expressed in transfected cells
T2 sequence (O15439 1-1325): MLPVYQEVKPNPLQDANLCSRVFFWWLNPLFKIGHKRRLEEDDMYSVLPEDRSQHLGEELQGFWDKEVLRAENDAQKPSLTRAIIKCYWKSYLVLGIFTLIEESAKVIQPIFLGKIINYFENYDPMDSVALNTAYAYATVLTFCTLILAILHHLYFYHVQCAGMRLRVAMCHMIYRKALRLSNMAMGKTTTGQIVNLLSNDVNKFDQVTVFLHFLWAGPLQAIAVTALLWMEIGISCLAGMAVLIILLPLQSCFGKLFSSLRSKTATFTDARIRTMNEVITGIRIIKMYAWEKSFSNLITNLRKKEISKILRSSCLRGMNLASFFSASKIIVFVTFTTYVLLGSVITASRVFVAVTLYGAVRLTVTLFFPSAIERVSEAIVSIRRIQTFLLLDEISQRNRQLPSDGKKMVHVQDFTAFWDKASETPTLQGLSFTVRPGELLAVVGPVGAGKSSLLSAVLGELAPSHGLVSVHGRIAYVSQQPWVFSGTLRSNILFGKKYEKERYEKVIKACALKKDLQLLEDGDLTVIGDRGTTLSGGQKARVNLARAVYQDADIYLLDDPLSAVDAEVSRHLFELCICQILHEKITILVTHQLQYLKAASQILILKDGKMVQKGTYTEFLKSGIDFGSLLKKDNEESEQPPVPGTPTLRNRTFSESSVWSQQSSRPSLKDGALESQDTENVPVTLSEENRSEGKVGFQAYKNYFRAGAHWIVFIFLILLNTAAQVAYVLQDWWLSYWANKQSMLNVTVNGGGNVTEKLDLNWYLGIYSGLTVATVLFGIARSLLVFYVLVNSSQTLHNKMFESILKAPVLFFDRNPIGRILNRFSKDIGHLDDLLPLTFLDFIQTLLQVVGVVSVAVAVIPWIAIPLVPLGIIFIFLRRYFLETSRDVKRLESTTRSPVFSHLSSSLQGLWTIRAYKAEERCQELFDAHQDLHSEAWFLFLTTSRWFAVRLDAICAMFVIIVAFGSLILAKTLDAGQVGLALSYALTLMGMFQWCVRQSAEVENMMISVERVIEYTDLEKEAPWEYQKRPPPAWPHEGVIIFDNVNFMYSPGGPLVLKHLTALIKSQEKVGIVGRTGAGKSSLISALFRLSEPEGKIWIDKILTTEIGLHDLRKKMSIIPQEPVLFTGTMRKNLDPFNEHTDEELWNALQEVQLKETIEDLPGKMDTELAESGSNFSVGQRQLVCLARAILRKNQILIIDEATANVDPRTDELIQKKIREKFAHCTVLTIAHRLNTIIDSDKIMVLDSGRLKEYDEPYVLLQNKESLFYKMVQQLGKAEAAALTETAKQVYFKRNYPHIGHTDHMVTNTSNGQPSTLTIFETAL
In words: Flow cytometry (FACS) binding to C6 cells stably transfected to express human ABCC4 (different experiment, Table 4). To be noted: C6 cells stably transfected to express human ABCC4, FACS; different experiment, Table 4. The method in brief: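 Murine C6 cells stably expressing FLAG-tagged human or cynomolgus ABCC4 incubated 30 min on ice with antibodies, either 5 ug/mL or serially diluted from 100 ug/mL, in PBS+2% FBS+0.02% azide. Detection with PE anti-human IgG F(ab′)2 by flow cytometry; EC50 at half-maximal MFI; negative below background, positive >3× background.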

Results on three molecules are retold here after patent US20240010747A1, “ANTI-MRP4 (ENCODED BY ABCC4 GENE) ANTIBODIES AND USES THEREOF” (Kenjockety Biotechnology, Inc., priority 2020, published 2024).

B1: C4.1148 (antibody, V domains shown)
VH: EVQLVESDGGLVQPGRSLKLSCAASGFTFSDYYMAWVRQAPPKGLEWVATISYDAFTTYYRDSVKGRFTISRDNAKTILFLQMDSLRSEDTATYYCIRLSTRYKGVMDAWGHGASVTVSS
VL: DIQMTQSPSNLAASPGESVSINCKASETIYKYLAWYQQKPGRTNKLLIYSGSTLQSGTPSRFSGSGSGTDFTLTIRNLEPEDFGRYYCQHHVEYPPTFGAGTKLELK
For B1, the binding result with human ABCC4 [1] was “binds”. For the same molecule, the “Human ABCC4 binding” value in the assay with human ABCC4 [2] is “+ (Positive (+)=MFI>3× background level)”.

B2: C4.1139 (antibody, V domains shown)
VH: EVQLVESDGGLVQPGRSLKLSCAASGFTFSDYYMAWVRQAPTKGLYWVASISYDGSTTYYRDSVKGRFTISRDNAKSTLYLQMGSLRSEDTATYYCARLSIRYKGVMDAWGRGASVTVSS
VL: DVVMTQSPSNLAASPGESVSINCKASKSIGKFLAWYQQKPGRPNKLLIYSGSTLQSGTPSRFSGSGSGTDFTLTIRNLEPGDFGLYYCQHHIEYPPTFGPGTKLELK
Consider B2, for which, in the assay with human ABCC4 [1], the binding result is on record as “binds”. In the assay with human ABCC4 [2], the “Human ABCC4 binding” value is “+ (Positive (+)=MFI>3× background level)”.

B3: C4.1059 (antibody, V domains shown)
VH: QVQLLQSGAALVKPGASVKMSCKPSGYTFTDYWVSWVKQSHGKSLEWIGEIYPNNGATNFNEKFKGKATLTVDKSTSTAYMELSRLTSEDSAIYYCPSRKYGYNWNFDYWGQGTMVTVSS
VL: DIVLTQSPALAVSLGQRATISCWASQSVSISRYNLMHWYQQKPGQQPKLLIYRASNLASGIPARFSGSGSGTDFTLTINPVQADDIATYYCQQSGESPWTFGGGTKLELK
Regarding B3, in the assay with human ABCC4 [1], the binding result is “binds”. Besides, the “Human ABCC4 binding” value in the assay with human ABCC4 [2] is “+ (Positive (+)=MFI>3× background level)”.
